Four molecules from patent publication US7163921 (dated 2007) can be followed below.

Numbered stars: 1 amine (or outer) side, 2 acyl side, 3 side chain; on linkers, the order of the positions; unused ones are H or OH. Square brackets hold non-standard residues; d marks the D form. * marks the point of attachment. X1 = N‑((R)-1-(2-naphthyl)ethyl)amide, C[C@@H](N*)c1ccc2ccccc2c1; 3,5‑dimethyl‑Tyr = Cc1cc(C[C@H](N[*:1])C(=O)[*:2])cc(C)c1O[*:3]; 6‑guanidinohexyl = N=C(N)NCCCCCC*

For assay [1], the target named is nociceptin receptor (human, UniProt P41146). As to the kind of experiment: competition, [3H]nociceptin, 25C, pH 7.8.
Sequence of nociceptin receptor (P41146 whole entry): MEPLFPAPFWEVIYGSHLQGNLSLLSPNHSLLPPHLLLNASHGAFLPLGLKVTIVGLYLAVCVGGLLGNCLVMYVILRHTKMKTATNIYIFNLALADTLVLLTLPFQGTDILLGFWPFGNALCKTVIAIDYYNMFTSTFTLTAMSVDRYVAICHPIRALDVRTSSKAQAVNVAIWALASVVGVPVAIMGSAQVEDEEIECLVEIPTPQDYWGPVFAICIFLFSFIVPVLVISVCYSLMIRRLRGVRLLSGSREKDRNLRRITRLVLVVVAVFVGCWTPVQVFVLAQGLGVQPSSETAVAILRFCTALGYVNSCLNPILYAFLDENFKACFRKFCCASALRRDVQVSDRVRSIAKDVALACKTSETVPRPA
The target in assay [2] is mu opioid receptor (human, UniProt P35372). As to the kind of experiment: competition, [3H]diprenorphine, 25C, pH 7.8.
Sequence of mu opioid receptor (P35372 whole entry): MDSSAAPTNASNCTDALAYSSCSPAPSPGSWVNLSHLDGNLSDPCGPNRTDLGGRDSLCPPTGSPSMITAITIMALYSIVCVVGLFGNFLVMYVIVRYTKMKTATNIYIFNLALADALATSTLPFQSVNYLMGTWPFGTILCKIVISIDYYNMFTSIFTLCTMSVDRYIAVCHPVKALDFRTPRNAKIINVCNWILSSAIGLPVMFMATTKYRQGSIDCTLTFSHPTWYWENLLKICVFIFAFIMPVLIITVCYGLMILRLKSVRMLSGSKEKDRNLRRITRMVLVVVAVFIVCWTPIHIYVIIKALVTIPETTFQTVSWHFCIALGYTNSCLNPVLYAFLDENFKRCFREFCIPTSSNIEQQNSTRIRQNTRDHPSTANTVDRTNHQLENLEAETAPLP

For the molecule {6‑guanidinopentyl}-Tyr-Tyr-Arg-X1 [Example 23 (N-α-6-guanidinopentyl-Tyr-Tyr-N-[(R)-1-(2-naphthyl)ethyl]-argininamide)], the Ki in assay [1] stood at 1.8 nM; in assay [2] it was 59 nM.

B1: Example 25 (N-α-6-guanidinohexyl-3,5-dimethyl-Tyr-Tyr-N-[(R)-1-(2-naphthyl)ethyl]-argininamide) (peptide)
chain: {6‑guanidinohexyl}-[3,5‑dimethyl‑Tyr]-Tyr-Arg-X1
SMILES: Cc1cc(C[C@H](NCCCCCCNC(=N)N)C(=O)N[C@@H](Cc2ccc(O)cc2)C(=O)N[C@@H](CCCNC(=N)N)C(=O)N[C@H](C)c2ccc3ccccc3c2)cc(C)c1O
On to B1, for which the Ki in assay [1] was 0.9 nM; in assay [2], 14 nM.

B2: Example 27 (N-α-6-guanidinohexyl-3,5-dimethyl-Tyr-3,5-dimethyl-Tyr-N-[(R)-1-(2-naphthyl)ethyl]-argininamide) (peptide)
chain: {6‑guanidinohexyl}-[3,5‑dimethyl‑Tyr]-[3,5‑dimethyl‑Tyr]-Arg-X1
SMILES: Cc1cc(C[C@H](NCCCCCCNC(=N)N)C(=O)N[C@@H](Cc2cc(C)c(O)c(C)c2)C(=O)N[C@@H](CCCNC(=N)N)C(=O)N[C@H](C)c2ccc3ccccc3c2)cc(C)c1O
B2: the values for the Ki in assay [1] and in assay [2] were 0.6 nM and 10 nM, respectively.

B3: Example 1 (N-α-6-guanidinohexyl-Tyr-Tyr-Arg-Trp-NH2) (peptide)
chain: {6‑guanidinohexyl}-YYRW-NH2
SMILES: N=C(N)NCCCCCCN[C@@H](Cc1ccc(O)cc1)C(=O)N[C@@H](Cc1ccc(O)cc1)C(=O)N[C@@H](CCCNC(=N)N)C(=O)N[C@@H](Cc1c[nH]c2ccccc12)C(N)=O
On to B3, for which the Ki was determined as 0.43 nM in assay [1] and 40 nM in assay [2].

For orientation: Ki means a measure of affinity in units of concentration, obtained from inhibition or displacement. A high value points to a looser hold on the target.
